Test results: publication PMC5467742 (Cell, 2017)
Several values for one entry are separate records, joined by “and”; a condition that tells them apart may be missing. Equal entries are not always repeated.

Tests used:
[1] = molecular target: T1, MlaA with C-terminal 6xHis tag (E. coli, UniProt P76506 18-251); test: affinity purification with mass spectrometry
T1 sequence (looked up): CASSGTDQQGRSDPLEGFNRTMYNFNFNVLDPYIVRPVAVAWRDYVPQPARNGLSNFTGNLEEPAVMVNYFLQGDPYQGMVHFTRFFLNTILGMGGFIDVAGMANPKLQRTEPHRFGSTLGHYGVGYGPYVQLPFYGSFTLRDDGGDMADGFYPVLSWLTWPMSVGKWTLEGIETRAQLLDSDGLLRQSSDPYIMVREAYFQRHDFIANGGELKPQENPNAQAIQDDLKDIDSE

negative-stain EM = molecular target: the molecule itself; test: negative-stain EM
cryo-EM structure = molecular target: the molecule itself; test: cryo-EM structure
MlaE = molecular target: T2, MlaE (E. coli, UniProt P64606 1-260); test: affinity purification with mass spectrometry
T2 sequence (looked up): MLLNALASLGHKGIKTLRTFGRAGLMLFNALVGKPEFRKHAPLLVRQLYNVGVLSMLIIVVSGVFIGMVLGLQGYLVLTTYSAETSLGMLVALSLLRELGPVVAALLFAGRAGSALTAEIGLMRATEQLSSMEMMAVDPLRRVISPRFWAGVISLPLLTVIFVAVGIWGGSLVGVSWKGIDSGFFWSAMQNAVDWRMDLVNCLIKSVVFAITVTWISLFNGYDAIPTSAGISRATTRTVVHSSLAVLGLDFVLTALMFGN

crystal structure = molecular target: the molecule itself; test: crystal structure

B1: OmpF (natural protein, E. coli (endogenous in Rosetta 2 (DE3)), UniProt P02931 23-362, looked up)
chain: AEIYNKDGNKVDLYGKAVGLHYFSKGNGENSYGGNGDMTYARLGFKGETQINSDLTGYGQWEYNFQGNNSEGADAQTGNKTRLAFAGLKYADVGSFDYGRNYGVVYDALGYTDMLPEFGGDTAYSDDFFVGRVGGVATYRNSNFFGLVDGLNFAVQYLGKNERDTARRSNGDGVGGSISYEYEGFGIVGAYGAADRTNLQEAQPLGNGKKAEQWATGLKYDANNIYLAANYGETRNATPITNKFTNTSGFANKTQDVLLVAQYQFDFGLRPSIAYTKSKAKDVEGIGDVDLVNYFEVGATYYFNKNMSTYVDYIINQIDSDNKLGVGSDDTVAVGIVYQF
B1 was tested, and the “stoichiometry N” value [1] was roughly 1.

B2: YebT, full length, C-terminal 6xHis tag (natural protein, E. coli, UniProt P76272 1-877, looked up)
chain: MSQETPASTTEAQIKNKRRISPFWLLPFIALMIASWLIWDSYQDRGNTVTIDFMSADGIVPGRTPVRYQGVEVGTVQDISLSDDLRKIEVKVSIKSDMKDALREETQFWLVTPKASLAGVSGLDALVGGNYIGMMPGKGKEQDHFVALDTQPKYRLDNGDLMIHLQAPDLGSLNSGSLVYFRKIPVGKVYDYAINPNKQGVVIDVLIERRFTDLVKKGSRFWNVSGVDANVSISGAKVKLESLAALVNGAIAFDSPEESKPAEAEDTFGLYEDLAHSQRGVIIKLELPSGAGLTADSTPLMYQGLEVGQLTKLDLNPGGKVTGEMTVDPSVVTLLRENTRIELRNPKLSLSDANLSALLTGKTFELVPGDGEPRKEFVVVPGEKALLHEPDVLTLTLTAPESYGIDAGQPLILHGVQVGQVIDRKLTSKGVTFTVAIEPQHRELVKGDSKFVVNSRVDVKVGLDGVEFLGASASEWINGGIRILPGDKGEMKASYPLYANLEKALENSLSDLPTTTVSLSAETLPDVQAGSVVLYRKFEVGEVITVRPRANAFDIDLHIKPEYRNLLTSNSVFWAEGGAKVQLNGSGLTVQASPLSRALKGAISFDNLSGASASQRKGDKRILYASETAARAVGGQITLHAFDAGKLAVGMPIRYLGIDIGQIQTLDLITARNEVQAKAVLYPEYVQTFARGGTRFSVVTPQISAAGVEHLDTILQPYINVEPGRGNPRRDFELQEATITDSRYLDGLSIIVEAPEAGSLGIGTPVLFRGLEVGTVTGMTLGTLSDRVMIAMRISKRYQHLVRNNSVFWLASGYSLDFGLTGGVVKTGTFNQFIRGGIAFATPPGTPLAPKAQEGKHFLLQESEPKEWREWGTALPK
B2 was tested, and the “stoichiometry N” value (negative-stain EM) was 6.

B3: PqiB periplasmic domain (residues 39-546) (domain or fragment, E. coli, UniProt P43671 39-546, looked up)
chain: SHQGPEVTLITANAEGIEGGKTTIKSRSVDVGVVESATLADDLTHVEIKARLNSGMEKLLHKDTVFWVVKPQIGREGISGLGTLLSGVYIELQPGAKGSKMDKYDLLDSPPLAPPDAKGIRVILDSKKAGQLSPGDPVLFRGYRVGSVETSTFDTQKRNISYQLFINAPYDRLVTNNVRFWKDSGIAVDLTSAGMRVEMGSLTTLLSGGVSFDVPEGLDLGQPVAPKTAFVLYDDQKSIQDSLYTDHIDYLMFFKDSVRGLQPGAPVEFRGIRLGTVSKVPFFAPNMRQTFNDDYRIPVLIRIEPERLKMQLGENADVVEHLGELLKRGLRGSLKTGNLVTGALYVDLDFYPNTPAITGIREFNGYQIIPTVSGGLAQIQQRLMEALDKINKLPLNPMIEQATSTLSESQRTMKNLQTTLDSMNKILASQSMQQLPTDMQSTLRELNRSMQGFQPGSAAYNKMVADMQRLDQVLRELQPVLKTLNEKSNALVFEAKDKKDPEPKRAKQ
With B3 the “stoichiometry N” value (cryo-EM structure) was 6.

B4: His-tagged MlaD, co-expressed from the mlaFEDCB operon (natural protein, E. coli, UniProt P64604 1-183, looked up)
chain: MQTKKNEIWVGIFLLAALLAALFVCLKAANVTSIRTEPTYTLYATFDNIGGLKARSPVSIGGVVVGRVADITLDPKTYLPRVTLEIEQRYNHIPDTSSLSIRTSGLLGEQYLALNVGFEDPELGTAILKDGDTIQDTKSAMVLEDLIGQFLYGSKGDDNKNSGDAPAAAPGNNETTEPVGTTK
B4: binds (MlaE).

B5: MlaD core MCE domain (residues 32-140) (domain or fragment, E. coli, UniProt P64604 32-140, looked up)
chain: TSIRTEPTYTLYATFDNIGGLKARSPVSIGGVVVGRVADITLDPKTYLPRVTLEIEQRYNHIPDTSSLSIRTSGLLGEQYLALNVGFEDPELGTAILKDGDTIQDTKSA
In the case of B5, the “stoichiometry N” value (crystal structure) is reported as 7 and 14.
